Results: publication PMC5511259

Target: Hd1 segment (aa112–337) between the zinc finger domain and the CCT domain (rice (Oryza sativa L.)) (UniProt Q9FDX8)
UniProt Q9FDX8, sequence (Q9FDX8 112-337): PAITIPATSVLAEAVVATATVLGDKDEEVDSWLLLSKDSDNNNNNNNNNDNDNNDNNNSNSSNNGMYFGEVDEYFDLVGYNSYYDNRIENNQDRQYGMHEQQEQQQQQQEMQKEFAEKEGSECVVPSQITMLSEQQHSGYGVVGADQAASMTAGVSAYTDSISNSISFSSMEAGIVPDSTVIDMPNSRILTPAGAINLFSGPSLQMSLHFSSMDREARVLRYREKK

## Ghd7 (aa187–257) segment containing the CCT domain (from UniProt E5RQA1 187-257) (domain or fragment)
  relative LUC activity activated by GAL4-Hd1^ZS (full-length CDS of Hd1 from ZS97) in rice protoplasts with increasing dosage of 35S:Ghd7-CFP (2, 4, 10 μg); decreased from 7.0 to 0.8 (relative LUC activity): 7
